The text below walks through data of EP0696198B1.

For assay [1], the target named is Factor Xa. In words: cell-based or functional assay.
Assay [2] concerns the target Factor Xa. As to the kind of experiment: reconstituted prothrombinase complex assay (250 pM FXa, 2.67 µM prothrombin), thrombin generation.
Assay [3] addresses Factor Xa. In words: modified prothrombinase complex assay (50 pM FXa, 1.35 µM prothrombin).

Substance “naturally occurring FXa inhibitor isolated from dilute leech saliva (DLS) of Hirudo medicinalis” displayed an IC50, prothrombinase complex assay (thrombin generation) in assay [1] of 0.19 nM. The figures for the Ki in assay [2] and in assay [3] were 0.072 nM and 0.12 nM, respectively.
